The text below walks through data of PMC5640855, “ZIC2 Is Essential for Maintenance of Latency and Is a Target of an Immediate Early Protein during Kaposi's Sarcoma-Associated Herpesvirus Lytic Reactivation” (Journal of Virology, 2017).

This experiment has as its target T1, GST-K-Rta (Kaposi's sarcoma-associated herpesvirus …, UniProt F5HCV3 1-691).
T1 construct: also called GST-tagged K-Rta; source: recombinant baculovirus-infected Sf9 cells, purified
T1 sequence: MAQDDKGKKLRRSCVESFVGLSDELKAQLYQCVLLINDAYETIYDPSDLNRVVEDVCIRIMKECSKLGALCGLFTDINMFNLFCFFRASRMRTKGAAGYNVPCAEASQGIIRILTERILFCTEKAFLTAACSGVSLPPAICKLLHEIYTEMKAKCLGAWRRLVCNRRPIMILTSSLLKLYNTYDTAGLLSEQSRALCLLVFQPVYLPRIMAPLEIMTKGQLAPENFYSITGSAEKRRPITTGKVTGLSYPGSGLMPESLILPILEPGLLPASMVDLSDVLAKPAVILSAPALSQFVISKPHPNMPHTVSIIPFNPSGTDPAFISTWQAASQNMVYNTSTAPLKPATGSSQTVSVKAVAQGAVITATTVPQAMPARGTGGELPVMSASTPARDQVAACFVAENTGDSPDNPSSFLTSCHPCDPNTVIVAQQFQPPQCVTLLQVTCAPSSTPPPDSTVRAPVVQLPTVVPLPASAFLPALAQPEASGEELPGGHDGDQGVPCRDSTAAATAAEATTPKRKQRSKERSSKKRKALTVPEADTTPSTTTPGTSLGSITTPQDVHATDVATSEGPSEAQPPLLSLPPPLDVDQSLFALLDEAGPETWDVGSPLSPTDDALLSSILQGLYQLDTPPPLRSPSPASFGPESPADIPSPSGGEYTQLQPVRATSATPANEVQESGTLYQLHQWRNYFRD
Briefly: pull-down. As to conditions: both partners purified.

B1: FLAG-tagged ZIC2 (natural protein, UniProt O95409 1-532, looked up)
chain: MLLDAGPQFPAIGVGSFARHHHHSAAAAAAAAAEMQDRELSLAAAQNGFVDSAAAHMGAFKLNPGAHELSPGQSSAFTSQGPGAYPGSAAAAAAAAALGPHAAHVGSYSGPPFNSTRDFLFRSRGFGDSAPGGGQHGLFGPGAGGLHHAHSDAQGHLLFPGLPEQHGPHGSQNVLNGQMRLGLPGEVFGRSEQYRQVASPRTDPYSAAQLHNQYGPMNMNMGMNMAAAAAHHHHHHHHHPGAFFRYMRQQCIKQELICKWIDPEQLSNPKKSCNKTFSTMHELVTHVSVEHVGGPEQSNHVCFWEECPREGKPFKAKYKLVNHIRVHTGEKPFPCPFPGCGKVFARSENLKIHKRTHTGEKPFQCEFEGCDRRFANSSDRKKHMHVHTSDKPYLCKMCDKSYTHPSSLRKHMKVHESSPQGSESSPAASSGYESSTPPGLVSPSAEPQSSSNLSPAAAAAAAAAAAAAAAVSAVHRGGGSGSGGAGGGSGGGSGSGGGGGGAGGGGGGSSGGGSGTAGGHSGLSSNFNEWYV
notes: ZIC2 (zinc finger protein of the cerebellum 2); cDNA cloned into pFastBac; also called FLAG-ZIC2; source: recombinant baculovirus-infected Sf9 cells, purified
As to B1, the binding result is on record as “binds”.
